Laboratory results as given in US20240018502A1.
Substitutions are numbered along the chain they refer to. Names and notes keep the numbering of the source. Each block holds one binder with its values, some of them ahead of it.

Molecular target: plasma purified human complement protein C3 (human) (UniProt P01024)
Assay: cell-based or functional assay

plasma purified human complement protein C3 (human), sequence (P01024 23-667, chain 1 of 2): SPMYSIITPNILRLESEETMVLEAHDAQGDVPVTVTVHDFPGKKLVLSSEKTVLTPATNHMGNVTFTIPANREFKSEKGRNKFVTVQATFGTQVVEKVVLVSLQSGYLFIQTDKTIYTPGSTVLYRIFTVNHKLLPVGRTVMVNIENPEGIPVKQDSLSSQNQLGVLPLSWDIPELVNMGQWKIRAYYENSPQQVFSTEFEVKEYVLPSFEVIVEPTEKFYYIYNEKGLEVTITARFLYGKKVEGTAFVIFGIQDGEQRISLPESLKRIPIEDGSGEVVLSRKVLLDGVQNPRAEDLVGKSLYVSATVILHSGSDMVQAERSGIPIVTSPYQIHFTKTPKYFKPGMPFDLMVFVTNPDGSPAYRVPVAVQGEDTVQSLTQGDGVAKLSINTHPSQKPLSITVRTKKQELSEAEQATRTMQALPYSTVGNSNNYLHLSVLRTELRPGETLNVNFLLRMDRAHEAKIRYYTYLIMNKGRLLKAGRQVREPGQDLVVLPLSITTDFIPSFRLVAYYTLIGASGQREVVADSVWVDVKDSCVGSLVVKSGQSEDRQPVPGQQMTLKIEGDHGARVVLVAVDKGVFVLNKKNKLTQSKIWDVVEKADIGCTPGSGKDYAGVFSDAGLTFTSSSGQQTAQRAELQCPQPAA
plasma purified human complement protein C3 (human), sequence (P01024 672-1663, chain 2 of 2): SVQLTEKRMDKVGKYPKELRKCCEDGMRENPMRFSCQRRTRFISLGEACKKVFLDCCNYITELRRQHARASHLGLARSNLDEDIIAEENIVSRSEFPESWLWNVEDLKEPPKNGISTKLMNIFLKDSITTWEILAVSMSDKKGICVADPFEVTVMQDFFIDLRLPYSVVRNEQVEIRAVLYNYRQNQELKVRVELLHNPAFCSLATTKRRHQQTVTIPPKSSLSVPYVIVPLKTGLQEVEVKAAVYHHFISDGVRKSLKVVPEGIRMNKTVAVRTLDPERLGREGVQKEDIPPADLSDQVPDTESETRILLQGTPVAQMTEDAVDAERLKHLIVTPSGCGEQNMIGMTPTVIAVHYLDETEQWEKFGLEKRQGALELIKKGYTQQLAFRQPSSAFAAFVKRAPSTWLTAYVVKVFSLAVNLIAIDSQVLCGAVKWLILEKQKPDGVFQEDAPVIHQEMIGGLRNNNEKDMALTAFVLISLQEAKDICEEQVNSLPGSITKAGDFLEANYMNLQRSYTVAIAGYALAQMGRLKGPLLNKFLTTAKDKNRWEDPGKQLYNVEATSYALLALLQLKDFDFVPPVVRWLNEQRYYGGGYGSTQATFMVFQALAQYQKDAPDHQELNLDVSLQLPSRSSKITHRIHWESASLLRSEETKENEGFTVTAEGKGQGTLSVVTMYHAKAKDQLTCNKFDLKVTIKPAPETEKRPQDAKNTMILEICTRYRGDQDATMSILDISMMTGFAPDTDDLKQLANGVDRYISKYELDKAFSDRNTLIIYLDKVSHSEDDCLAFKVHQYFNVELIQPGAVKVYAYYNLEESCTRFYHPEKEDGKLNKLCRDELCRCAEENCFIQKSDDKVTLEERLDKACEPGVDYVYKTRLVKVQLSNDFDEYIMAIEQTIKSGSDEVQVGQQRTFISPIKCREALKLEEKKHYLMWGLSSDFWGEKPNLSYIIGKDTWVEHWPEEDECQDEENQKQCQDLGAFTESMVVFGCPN

EC50 of hC3 cleavage: 22 nM
B1: MTSP-1 Q38H/I41S/L52M/D60bG/ins97aV/F97D/T98P/F99L/M117K/C122S/I136L/Q192G/D217A (enzyme)
chain: VVGGTDADEGEWPWQVSLHALGHGHSCGASLISPNWMVSAAHCYIDGRGFRYSDPTQWTAFLGLHDQSQRSAPGVQERRLKRIISHPFFNDDVPLDYDIALLELEKPAEYSSKVRPISLPDASHVFPAGKALWVTGWGHTQYGGTGALILQKGEIRVINQTTCENLLPQQITPRMMCVGFLSGGVDSCGGDSGGPLSSVEADGRIFQAGVVSWGAGCAQRNKPGVYTRLPLFRDWIKENTGV

EC50 of hC3 cleavage: 10.2 nM
B2: MTSP-1 Q38E/I41A/D60bH/ins97aV/F97D/T98P/F99L/C122S/Q192G/Q209L/D217H (enzyme)
chain: B1 chain with H23E, S26A, M37L, G47H, K113M, L132I, Q207L, A215H

EC50 of hC3 cleavage: 2.43 nM
B3: MTSP-1 Q38H/I41S/D60bS/ins97aV/F97D/T98P/F99L/M117L/C122S/I136T/Q192G/D217I (enzyme)
chain: B1 chain with M37L, G47S, K113L, L132T, A215I

EC50 of hC3 cleavage: 25.5 nM
B4: MTSP-1 Q38H/I41T/D60bH/ins97aV/F97D/T98P/F99L/C122S/I136F/L153P/Q192G/D217Y (enzyme)
chain: B1 chain with S26T, M37L, G47H, K113M, L132F, L148P, A215Y

EC50 of hC3 cleavage: 22.2 nM
B5: MTSP-1 Q38H/I41S/D60bT/ins97aV/F97D/T98P/F99L/C122S/I136V/Q192G/D217S (enzyme)
chain: B1 chain with M37L, G47T, K113M, L132V, A215S

EC50 of hC3 cleavage: 3.06 nM
B6: MTSP-1 Q38H/I41A/D60bW/ins97aV/F97D/T98P/F99L/C122S/I136M/Q192G/D217N (enzyme)
chain: B1 chain with S26A, M37L, G47W, K113M, L132M, A215N

EC50 of hC3 cleavage: 27.7 nM
B7: MTSP-1 I41S/D60bT/F93L/ins97aV/F97D/T98P/F99L/C122S/Q192G/D217H (enzyme)
chain: B1 chain with H23Q, M37L, G47T, F88L, K113M, L132I, A215H

EC50 of hC3 cleavage: 9.56 nM
B8: MTSP-1 Q38H/I41S/D60bS/F93L/D96Y/ins97aV/F97D/T98P/F99L/C122S/I136F/Q192G/D217V (enzyme)
chain: B1 chain with M37L, G47S, F88L, D91Y, K113M, L132F, A215V

EC50 of hC3 cleavage: 39.8 nM
B9: MTSP-1 Q38R/I41T/D60bT/ins97aV/F97D/T98P/F99L/C122S/I136V/Q192G/D217N/L233Q (enzyme)
chain: B1 chain with H23R, S26T, M37L, G47T, K113M, L132V, A215N, L231Q

EC50 of hC3 cleavage: 48.3 nM
B10: MTSP-1 Q38H/I41S/P49Q/D60bS/F93L/ins97aV/F97D/T98P/F99L/C122S/Q192G/D217Q (enzyme)
chain: B1 chain with P34Q, M37L, G47S, F88L, K113M, L132I, A215Q

EC50 of hC3 cleavage: 12.1 nM
B11: MTSP-1 Q38E/I41S/D60bV/F60eK/Y60gW/F97T/ins97aE/T98G/F99L/C122S/G151N/Q175L/Q192D (enzyme)
chain: VVGGTDADEGEWPWQVSLHALGEGHSCGASLISPNWLVSAAHCYIDVRGKRWSDPTQWTAFLGLHDQSQRSAPGVQERRLKRIISHPFFNDTEGLDYDIALLELEKPAEYSSMVRPISLPDASHVFPAGKAIWVTGWGHTQYGGTNALILQKGEIRVINQTTCENLLPQLITPRMMCVGFLSGGVDSCDGDSGGPLSSVEADGRIFQAGVVSWGDGCAQRNKPGVYTRLPLFRDWIKENTGV

EC50 of hC3 cleavage: 6.95 nM
B12: MTSP-1 Q38H/I41A/D60bT/F60eH/Y60gW/F97T/ins97aE/T98G/F99L/C122S/G151N/Q175L/Q192D (enzyme)
chain: B11 chain with E23H, S26A, V47T, K50H

EC50 of hC3 cleavage: 25 nM
B13: MTSP-1 Q38Y/I41S/D60bR/F60eE/Y60gF/ins97aE/F97T/T98G/F99L/C122S/Q175L/Q192V (enzyme)
chain: B11 chain with E23Y, V47R, K50E, W52F, N146G, D189V

EC50 of hC3 cleavage: 1.25 nM
B14: MTSP-1 Q38F/I41A/D60bT/F60eG/Y60gW/ins97aE/F97T/T98G/F99L/C122S/Q175L/Q192E (enzyme)
chain: B11 chain with E23F, S26A, V47T, K50G, N146G, D189E

EC50 of hC3 cleavage: 22.3 nM
B15: MTSP-1 Q38H/I41A/D60bK/F60eK/Y60gW/F97T/ins97aE/T98G/F99L/C122S/Q175L/Q192D (enzyme)
chain: B11 chain with E23H, S26A, V47K, N146G

EC50 of hC3 cleavage: 10.6 nM
B16: MTSP-1 Q38H/I41A/D60bT/F60eK/Y60gW/ins97aE/F97T/T98G/F99L/C122S/G151H/Q175L/Q192D (enzyme)
chain: B11 chain with E23H, S26A, V47T, N146H

EC50 of hC3 cleavage: 22.6 nM
B17: MTSP-1 Q38H/I41S/D60bT/F60eS/Y60gW/F97D/ins97aV/T98P/F99L/C122S/G151H/Q175A/Q192D (enzyme)
chain: B11 chain with E23H, V47T, K50S, T92D, E93V, G94P, N146H, L170A

EC50 of hC3 cleavage: 4.1 nM
B18: MTSP-1 D60bY/F97T/ins97aE/T98G/F99L/C122S/Q175L/Q192G (enzyme)
chain: B11 chain with E23Q, S26I, V47Y, K50F, W52Y, N146G, D189G

EC50 of hC3 cleavage: 13.1 nM
B19: MTSP-1 Q38L/I41T/D60bV/F60eH/Y60gL/ins97aE/F97T/T98G/F99L/C122S/Q175L/Q192S (enzyme)
chain: B11 chain with E23L, S26T, K50H, W52L, N146G, D189S

EC50 of hC3 cleavage: 18.3 nM
B20: MTSP-1 Q38R/I41V/D60bV/F60eV/Y60gF/ins97aE/F97T/T98G/F99L/C122S/Q175L/Q192G (enzyme)
chain: B11 chain with E23R, S26V, K50V, W52F, N146G, D189G

EC50 of hC3 cleavage: 2.71 nM
B21: MTSP-1 Q38H/I41A/D60bT/F60eK/Y60gW/F97T/ins97aE/T98G/F99L/C122S/Q175L/Q192A (enzyme)
chain: B11 chain with E23H, S26A, V47T, N146G, D189A

EC50 of hC3 cleavage: 3.88 nM
B22: MTSP-1 I41T/D60bY/F97T/ins97aE/T98G/F99L/C122S/Q175L/Q192G (enzyme)
chain: B11 chain with E23Q, S26T, V47Y, K50F, W52Y, N146G, D189G

EC50 of hC3 cleavage: 13.8 nM
B23: MTSP-1 Q38H/I41A/D60bE/F60eH/Y60gW/ins97aE/F97T/T98G/F99L/C122S/G151H/Q175L/Q192D (enzyme)
chain: B11 chain with E23H, S26A, V47E, K50H, N146H

EC50 of hC3 cleavage: 6.42 nM
B24: MTSP-1 Q38H/I41A/D60bV/F60eI/Y60gW/ins97aE/F97T/T98G/F99L/C122S/G151H/Q175L/Q192D (enzyme)
chain: B11 chain with E23H, S26A, K50I, N146H

EC50 of hC3 cleavage: 4.77 nM
B25: MTSP-1 Q38H/I41A/D60bY/F60eT/ins97aE/F97T/T98G/F99L/C122S/Q175L/Q192D (enzyme)
chain: B11 chain with E23H, S26A, V47Y, K50T, W52Y, N146G

EC50 of hC3 cleavage: 15.4 nM
B26: MTSP-1 Q38H/I41S/D60bT/F60eR/ins97aE/F97T/T98G/F99L/C122S/Q175L/Q192E (enzyme)
chain: B11 chain with E23H, V47T, K50R, W52Y, N146G, D189E
